The record followed here is the RNAGym collection of RNA variant scans (doi:10.7554/elife.80360).

The labels stand for the following.
B1: Hairpin Ribozyme (parent)
chain: GUCCUCUUUCACGUGCGCGUGAAAGAGAGAAGUGAACCAGAGAAACACACGUUGUGGUAUAUUACCUGGUA

The variants in the data set derive from B1. As to the kind of experiment: self-cleavage, relative activity (ratio to wild type); higher = more cleavage; co-transcriptional.
Turning to GUCCUCUUUCACGUGCGCGUGAAAGAGAGAAAUGAACCAGAGAAACACGCGUUGUGGUAUAUUACCUGGUA, the self-cleavage is 0.366. In the case of GUCCUCUUUCACGUGCGCGUGAAAGAGAGAAAUGAACCAGAGAAACACACGUUGUGGUAUAUUACCUGGUA, the self-cleavage stood at 0.153. For GUCCUCUUUCACGUGCGCGUGAAAGAGAGAUGUGAACCAGAGAAACACACGUUGUGGUAUAUUUCCUGGUA the value was 0.134. For GUCCUCUUUCACGUGCGCGUGAAAGAGAGAUGUGAACCAGAGAAACUCACGUUGUGGUAUAUUACCUGGUA the value was 0.141; for GUCCUCUUUCACGUGCGCGUGAAAGAGAGAUGUGAACCAGAGAAACACACGUUGUGGUAUAUUACCUGGUC, 0.227; for GUCCUCUUUCACGUGCGCGUGAAAGAGAGAUGUGAACCAGAGAAACACACGUUGUGGUAUAUUACCUGGUU, 0.172. As for GUCCUCUUUCACGUGCGCGUGAAAGAGAGAUGUGAACCAGAGAAACACACGUUGUGGUAUAUUACCUGGUG, the self-cleavage worked out at 0.226. Turning to GUCCUCUUUCACGUGCGCGUGAAAGAGAGAGGUGAACCAGAGAAACACACGUUGUGGUAUAUUACCUGCUA, the self-cleavage was 0.199. For GUCCUCUUUCACGUGCGCGUGAAAGAGAGAUGUGAACCAGAGAAAAACACGUUGUGGUAUAUUACCUGGUA the value was 0.236.

Consider GUCCUCUUUCACGUGCGCGUGAAAGAGAGAUGUGAACCAGAGAAAUACACGUUGUGGUAUAUUACCUGGUA, for which the self-cleavage came out at 0.205.

Consider GUCCUCUUUCACGUGCGCGUGAAAGAGAGAAAUGAACCAGAGAAACACACGUUGUAGUAUAUUACCUGGUA, for which the self-cleavage was determined as 0.179. As for GUCCUCUUUCACGUGCGCGUGAAAGAGAGAAAUGAACCAGAGAAACACACGUUGUUGUAUAUUACCUGGUA, the figure is 0.221; as for GUCCUCUUUCACGUGCGCGUGAAAGAGAGAAAUGUACCAGAGAAACACACGUUGUGGUAUAUUACCUGGUA, 0.153; as for GUCCUCUUUCACGUGCGCGUGAAAGAGAGAAAUGGACCAGAGAAACACACGUUGUGGUAUAUUACCUGGUA, 0.142. For GUCCUCUUUCACGUGCGCGUGAAAGAGAGAUGUGAACCAGAGACACACACGUUGUGGUAUAUUACCUGGUA the value was 0.101. As for GUCCUCUUUCACGUGCGCGUGAAAGAGAGAUGUGAACCAGAGAUACACACGUUGUGGUAUAUUACCUGGUA, the figure is 0.286; as for GUCCUCUUUCACGUGCGCGUGAAAGAGAGAAAUGAACCAGAGAAACACACGUUGUGGUAUAUUACCUAGUA, 0.193. With GUCCUCUUUCACGUGCGCGUGAAAGAGAGAAAUGAACCAGAGAAACACACGUUGUGGUAUGUUACCUGGUA, the self-cleavage is 0.153. For GUCCUCUUUCACGUGCGCGUGAAAGAGAGAAAUGAACCAGAGAAACACACGUUGUGGUAUCUUACCUGGUA the value was 0.0657; for GUCCUCUUUCACGUGCGCGUGAAAGAGAGAUGUGAACCAGAGAAACACACGUUGUGGUAUAUUACCCGGUA, 0.0741. As for GUCCUCUUUCACGUGCGCGUGAAAGAGAGAUGUGAACCAGAGGAACACACGUUGUGGUAUAUUACCUGGUA, the figure is 0.134; as for GUCCUCUUUCACGUGCGCGUGAAAGAGAGAUGUGAACCAGAGAAACACACGUUGUGGUAGAUUACCUGGUA, 0.115; as for GUCCUCUUUCACGUGCGCGUGAAAGAGAGAUGUGAAUCAGAGAAACACACGUUGUGGUAUAUUACCUGGUA, 0.187. On to GUCCUCUUUCACGUGCGCGUGAAAGAGAGAAAUGAACCAGAGAAACUCACGUUGUGGUAUAUUACCUGGUA, for which the self-cleavage came to 0.125. For GUCCUCUUUCACGUGCGCGUGAAAGAGAGAAAUGAACCAGAGAAACGCACGUUGUGGUAUAUUACCUGGUA the value was 0.133; for GUCCUCUUUCACGUGCGCGUGAAAGAGAGAAAUGAACCAGAUAAACACACGUUGUGGUAUAUUACCUGGUA, 0.186; for GUCCUCUUUCACGUGCGCGUGAAAGAGAGAUGUGAACCAGAGAAACACACGUUGUCGUAUAUUACCUGGUA, 0.137.

Take GUCCUCUUUCACGUGCGCGUGAAAGAGAGAGGUGAACCAGAGAAACACACGUUGUGGUAUAUCACCUGGUA: the self-cleavage came to 0.105. Take GUCCUCUUUCACGUGCGCGUGAAAGAGAGAGGUGAACCAGAGAAACACACGUUGUGGUAUAUAACCUGGUA: the self-cleavage amounted to 0.144. As for GUCCUCUUUCACGUGCGCGUGAAAGAGAGAAAUGAACCAGAGAAGCACACGUUGUGGUAUAUUACCUGGUA, the self-cleavage came out at 0.117. For GUCCUCUUUCACGUGCGCGUGAAAGAGAGAUGUGAACCAGAGAAACACACGUUGAGGUAUAUUACCUGGUA the value was 0.0885; for GUCCUCUUUCACGUGCGCGUGAAAGAGAGAGGUGAACCAGAGAAACACACGUUGUGGUAUACUACCUGGUA, 0.0965; for GUCCUCUUUCACGUGCGCGUGAAAGAGAGAUGUCAACCAGAGAAACACACGUUGUGGUAUAUUACCUGGUA, 0.

For GUCCUCUUUCACGUGCGCGUGAAAGAGAGAUGUGAACCAGAGAAACACACGUUGUGGUAUAUUACCUUGUA, the self-cleavage came out at 0.206.

GUCCUCUUUCACGUGCGCGUGAAAGAGAGAAAUGAACCAGAGAAACACACGUUGUGGUAUAUUUCCUGGUA: the self-cleavage was 0.204. As for GUCCUCUUUCACGUGCGCGUGAAAGAGAGAAAUGAAGCAGAGAAACACACGUUGUGGUAUAUUACCUGGUA, the figure is 0.0907. Take GUCCUCUUUCACGUGCGCGUGAAAGAGAGAUGUGAACCAGAGAAACACACGUUGUGGUAUAUUACCUGGUA: the self-cleavage worked out at 0.129. For GUCCUCUUUCACGUGCGCGUGAAAGAGAGAUGUGAACCAGAGAAACACACGUUGUGGUGUAUUACCUGGUA the value was 0.0459.
